Consider 17 molecules from patent WO2025083273A1 (dated 2025).

Changes are numbered by the printed parent chain. In names and notes the source's numbering stands.

T1: recombinant human DR3/TNFRSF25 Fc chimera (human, UniProt Q93038 25-199)
T1 construct: extracellular domain; bought (R&D Systems); also called DR3-Fc; hDR3Fc chimera; not shown: human IgG1 Fc
T1 sequence (looked up): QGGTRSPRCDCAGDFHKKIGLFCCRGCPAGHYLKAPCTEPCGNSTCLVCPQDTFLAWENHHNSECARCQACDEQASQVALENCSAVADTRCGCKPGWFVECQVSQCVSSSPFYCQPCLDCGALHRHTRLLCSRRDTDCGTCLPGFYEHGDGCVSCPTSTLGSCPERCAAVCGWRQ

T2: DR3-8i (human)
T2 construct: also called purified monomeric DR3-8i antigen protein
T2 chain: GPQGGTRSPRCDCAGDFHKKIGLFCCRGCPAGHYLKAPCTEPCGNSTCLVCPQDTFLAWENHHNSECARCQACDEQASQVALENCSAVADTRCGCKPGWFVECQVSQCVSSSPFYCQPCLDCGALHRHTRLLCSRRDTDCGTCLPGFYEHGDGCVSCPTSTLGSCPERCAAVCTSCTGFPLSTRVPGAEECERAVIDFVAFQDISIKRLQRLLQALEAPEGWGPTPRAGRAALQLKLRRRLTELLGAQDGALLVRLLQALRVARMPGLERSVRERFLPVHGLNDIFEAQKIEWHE

T3: human DR3 (TNFRSF25) expressed on cells (human, UniProt Q93038 25-417)
T3 sequence: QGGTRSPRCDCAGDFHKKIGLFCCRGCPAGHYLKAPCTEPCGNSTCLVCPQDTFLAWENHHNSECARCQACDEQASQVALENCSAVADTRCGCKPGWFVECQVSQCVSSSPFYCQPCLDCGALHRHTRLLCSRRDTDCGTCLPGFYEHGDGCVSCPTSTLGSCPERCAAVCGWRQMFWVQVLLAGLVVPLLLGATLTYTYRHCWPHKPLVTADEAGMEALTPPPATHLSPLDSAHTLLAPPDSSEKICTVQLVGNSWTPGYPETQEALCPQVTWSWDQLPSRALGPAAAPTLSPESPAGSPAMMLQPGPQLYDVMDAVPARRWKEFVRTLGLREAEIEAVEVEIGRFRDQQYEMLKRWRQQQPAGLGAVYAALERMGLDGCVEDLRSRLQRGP

B1: F10 mIgG1 (antibody, V domains shown)
VH: EVQLVESGGDLVKPGGSLKLSCAASGFSFSAYAMSWVRQTPEKILEWVATISDGDPYTYYPDNVKGRFTISRDNARNNLYLQMSHLRSEDTAIYYCTRERNDYDQYYTMDYWGQGTSVTVSS
VL: DIVLTQSPASLVVSLGQRATISCRASKSVSTSGYNYLHWYQQTPGQPPKLLIYLASNLESGVPARFSGSGSGTDFTLNIHPVEEEDVATYYCQHSRELPWTFGRGTKLEIKR
notes: parental mouse IgG1; also called F10-M1; murine anti-hDR3 mAb clone F10
B2: B9 mIgG2A (antibody, V domains shown)
VH: EVQLVESGGGLVKPGGSLKLSCSASGFTFSSYAMSWVRQTPEKRLEWVATISDGDSYSYFPDSVKDRFIISRDNAKNNLFLQMSHLRSEDTAMYYCTRDRIYGSVQYYAMDYWGQGTSVTVSS
VL: DIVLTQSPASLAVSLGQRATISCRASESVEFSGTSLMQWYQQRPGLPPKLLIYAASNVESGVPARFSGSGSGTDFSLNIHPVEEDDIAMYFCQQSRKLPYTFGGGTKLEIN
notes: parental mouse IgG2a, kappa; also called B9-M2A; murine anti-hDR3 mAb clone B9
B3: VHg2/VLs10 (antibody, human IgG1, V domains shown)
VH: QMQLVQSGGGLVKPGGSLRLSCAASGFTFSSYAMSWIRQAPGKGLEWVSTISDGDSYSYFPDSVKDRFTISRDNAKNSLYLQMNSLRAEDTAVYYCTRDRIYGSVQYYAMDYWGRGTLVTVSS
VL: ETTLTQSPGTLSLSPGERATLSCRASQSVSSSSLAWYQQKPGQAPRLLIYGASSRATGIPDRFSGSGSGTDFTLTISRLEPEDFAVYYCHQYGGSWTFGKGTKVEIK
notes: human IgG1; also called VHg2_VLg10
B4: VHg10/VLg6 (antibody, human IgG1, V domains shown)
VH: B3 VH with Q1E, M2V, Q6E, K13Q, I37V, A75S, S78T, T97A, R115Q
VL: DVVMTQSPPSLPVTPGEPASISCRASESVEFSGTSLMQWYLQKPGQSPQVLIYAASNVESGVPDRFSGSGSGTDFTLKISRVEAEDVGVYYCQQSRKLPYTFGQGTRLEIK
notes: human IgG1
B5: VHg6/VLg13 (antibody, human IgG1, V domains shown)
VH: B3 VH with M2V, V5Q, K13Q, I37V, S49A, K76R, T97A
VL: DIQMTQSPSSLSASVGDRVTITCRASESVEFSGTSLMQWYQQKPGKAPKLLIYAASNVESGVPSRFSGSGSGTDFTFTISSLQPEDIATYYCQQSRKLPYTFGQGTKLEIK
notes: human IgG1
B6: VHg1/VLg11 (antibody, human IgG1, V domains shown)
VH: B3 VH with M2V, K13Q, I37V, A75S, S78T, A92S, T97A, R115Q
VL: DIVMTQSPDSLAVSLGERATINCRASESVEFSGTSLMQWYQQKPGQPPKLLIYAASNVESGVPDRFSGSGSGTDFTLTISSLQAEDVAVYYCQQSRKLPYTFGQGTKLEIK
notes: human IgG1; also called H1L11; VHg1/VL11
B7: VHg6/VLg11 (antibody, human IgG1, V domains shown)
VH: B3 VH with M2V, V5Q, K13Q, I37V, S49A, K76R, T97A
VL: B6 VL
notes: human IgG1
B8: B9-hIgG1 (antibody, V domains shown)
VH: B2 VH
VL: B2 VL
notes: chimeric: mouse B9 variable regions, human IgG1; also called B9-H1; Non-humanised B9
B9: VHg1/VLg4 (antibody, human IgG1, V domains shown)
VH: B3 VH with M2V, K13Q, I37V, A75S, S78T, A92S, T97A, R115Q
VL: B6 VL with I2V, N22S, G45R, P48L, K107R
notes: human IgG1
B10: VHg5/VLg2 (antibody, human IgG1, V domains shown)
VH: B3 VH with M2V, V5Q, K13Q, P14A, S30T, I37V, S49A, T69I, Y80F, T97A
VL: B5 VL with M4L, P44A, K46L, F77L, I87F, A88G, K107R
notes: human IgG1
B11: VHg2/VLg4 (antibody, human IgG1, V domains shown)
VH: B3 VH
VL: B6 VL with I2V, N22S, G45R, P48L, K107R
notes: human IgG1
B12: VHg5/VLg13 (antibody, human IgG1, V domains shown)
VH: B3 VH with M2V, V5Q, K13Q, P14A, S30T, I37V, S49A, T69I, Y80F, T97A
VL: B5 VL
notes: human IgG1
B13: VHg6/VLg1 (antibody, human IgG1, V domains shown)
VH: B3 VH with M2V, V5Q, K13Q, I37V, S49A, K76R, T97A
VL: B6 VL with I2V, A88V, Q104G, L108V
notes: human IgG1
B14: VHg5/VLg12 (antibody, human IgG1, V domains shown)
VH: B3 VH with M2V, V5Q, K13Q, P14A, S30T, I37V, S49A, T69I, Y80F, T97A
VL: EIVLTQSPATLSLSPGERATLSCRASESVEFSGTSLMQWYQQKPGQAPRLLIYAASNVESGIPARFSGSGSGTDFTLTISSLEPEDFAVYYCQQSRKLPYTFGQGTKLEIK
notes: human IgG1
B15: VHg2/VLg13 (antibody, human IgG1, V domains shown)
VH: B3 VH
VL: B5 VL
notes: human IgG1
B16: VHg3/VLg4 (antibody, human IgG1, V domains shown)
VH: B3 VH with Q1E, M2V, T28K, I37V, V48L, T69I, A88V, A92G, T97A, R115Q
VL: B6 VL with I2V, N22S, G45R, P48L, K107R
notes: human IgG1
B17: VHg5/VLg11 (antibody, human IgG1, V domains shown)
VH: B3 VH with M2V, V5Q, K13Q, P14A, S30T, I37V, S49A, T69I, Y80F, T97A
VL: B6 VL
notes: human IgG1

The first assay has as its target T1, recombinant human DR3/TNFRSF25 Fc …. Kind of assay: SPR (Biacore), His-tagged hDR3-Fc captured by anti-His mAb, bivalent fit; apparent KD. On the technique in general: In SPR one partner is held on a chip, and binding of the other changes the refractive index at the surface.
Regarding B1, the Kd amounted to 1.07 nM.
In the case of B2, the Kd was determined as 0.561 nM.

A further assay addresses T2, DR3-8i. As to the kind of experiment: BLI, IgG captured on protein A, DR3-8i in solution; Experiment 1.
In turn, B3 registered a Kd of 0.41 nM.
With B4, the Kd worked out at 0.418 nM.
B5 returned a Kd of 0.225 nM.
The molecule B6 displayed a Kd of 0.001 nM.
Same read-out and setting: the result for B7 reads 0.19 nM; that for B8, 0.327 nM.

A further assay has as its target T1, recombinant human DR3/TNFRSF25 Fc …. As to the kind of experiment: HTRF epitope competition on DR3-Fc; competitor DyLight 650 labelled B9 IgG; mean ± SD of three experiments.
As usually defined, the IC50 is the concentration that gives 50% inhibition. Consider B5, for which the IC50 was 0.348 nM.
Still for that read-out and setting: the result for B6 reads 0.447 nM; that for B7, 0.287 nM; that for B8, 0.252 nM.

Another assay addresses T3, human DR3 (TNFRSF25) expressed on cells. Kind of assay: cell-based or functional assay.
As to B9, the “Signal (FLU)” value turned out to be 2.09e+06 FLU.
B3: the “EC50 (pM), DR3 Jurkat reporter” value came out at 644 pM and the “Signal (FLU)” value turned out to be 2.34e+06 FLU.
Consider B4, for which the “Signal (FLU)” value came to 2.75e+06 FLU.
As to B5, the “EC50 (pM), DR3 Jurkat reporter” value stood at 141 pM and the “Signal (FLU)” value came to 2.75e+06 FLU.
In the case of B10, the “Signal (FLU)” value was 2.76e+06 FLU.
Take B11: the “Signal (FLU)” value is 2.21e+06 FLU.
Turning to B6, the “EC50 (pM), DR3 Jurkat reporter” value was found to be 331 pM and the “Signal (FLU)” value stood at 2.47e+06 FLU.
Consider B7, for which the “EC50 (pM), DR3 Jurkat reporter” value turned out to be 130 pM and the “Signal (FLU)” value was 2.45e+06 FLU.
Turning to B12, the “Signal (FLU)” value amounted to 2.7e+06 FLU.
The same measure, in the same setting: the same measure for B13: 2.16e+06 FLU; for B14: 2.62e+06 FLU.
On the same count and under the same terms, the result for B15 reads 2.94e+06 FLU; that for B16, 2.32e+06 FLU; that for B17, 2.4e+06 FLU.
For B8, the “EC50 (pM), DR3 Jurkat reporter” value came out at 457 pM.

The target of the next assay is T2, DR3-8i. Kind of assay: BLI, IgG captured on protein A, DR3-8i in solution; Experiment 2. In general terms: Biolayer interferometry detects binding as a change in optical thickness at a sensor tip.
Take B3: the Kd amounted to 0.42 nM.
B4 had a Kd of 0.234 nM.
Same read-out and setting: the result for B5 reads 0.0956 nM.
In the case of B7, the Kd stood at 0.0999 nM.
The same measure, in the same setting: the result for B8 reads 0.19 nM.

In the next assay the target is T2, DR3-8i. As to the kind of experiment: BLI, IgG captured on protein A, DR3-8i in solution; Average.
In turn, B3 displayed a Kd of 0.415 nM.
Turning to B4, the Kd stood at 0.326 nM.
Same read-out and setting: the result for B5 reads 0.16 nM.
Still for that read-out and setting: the same measure for B7: 0.145 nM.
In turn, B8 gave a Kd of 0.259 nM.

A further assay concerns the target T2, DR3-8i. Kind of assay: BLI, IgG captured on protein A, DR3-8i in solution; single experiment, column not clear.
B9 came in with a Kd of 0.196 nM.
Turning to B10, the Kd is 0.132 nM.
Turning to B11, the Kd came to 0.0248 nM.
On the same count and under the same terms, the result for B12 reads 0.124 nM; that for B13, 0.076 nM.
Same read-out and setting: the same measure for B14: 0.126 nM.
The molecule B15 gave a Kd of 0.157 nM.
In turn, B16 displayed a Kd of 0.385 nM.
With B17, the Kd is 0.0881 nM.
